Source: US20230304010A1 (AADIGEN, published 2023)
Several values for one entry are separate records, joined by “and”; a condition that tells them apart may be missing. Equal entries are not always repeated.

What was measured:
SARS-CoV-2 Spike [1] = target: T1, SARS-CoV-2 Spike (SARS-CoV-2, UniProt P0DTC2 16-685); assay: inhibitor screening kit, ADGN-106 nanoparticles (Example 6, section A)
SARS-CoV-2 Spike [2] = target: T1, SARS-CoV-2 Spike
SARS-CoV-2 Spike [3] = target: T1, SARS-CoV-2 Spike; assay: inhibitor screening kit, ADGN-106 nanoparticles (Example 6, section B)

Binder | fold more potent than SBP-1-ADGN-106/ADGN-106 complex (SARS-CoV-2 Spike [1]) [fold] | fold more potent than SBP-1 peptide/ADGN-106 complex (SARS-CoV-2 Spike [1]) [fold] | IC50 (SARS-CoV-2 Spike [2]) | fold more potent than SBP-1-ADGN-106/ADGN-106 complex (SARS-CoV-2 Spike [3]) [fold] | fold more potent than SBP-1 peptide/ADGN-106 complex (SARS-CoV-2 Spike [3]) [fold]
Seq27 (LNCOV-27)/ADGN-106 nanoparticle complex (other) peptide 1: EQAKTFLDKFNHEAEDLFPKWSAFLKEQSTLAQMYG peptide 2: LWRALWRLWRSLWRLLWK | 6 | 40 | 1.8 nM and 1.1 nM | 4 | 35
Seq28 (LNCOV-20)/ADGN-106 nanoparticle complex (other) peptide 1: KTFLDKFNHEAEDLFPGPKWSAFLKEQSTLAQMYG peptide 2: LWRALWRLWRSLWRLLWK | 6 | 40 | 2.7 nM and 2.1 nM | 4 | 35
